From patent US8629106B2, “Affinity peptides toward BMP-2” (Janssen Biotech, Inc., priority 2010, dated 2014)
No end group written: not given here.

Tests used:
[1] = test system: MCHT-1/26 cells (mouse osteoblast cell line); experiment: Alkaline phosphatase bioactivity assay in the presence of BMP-2; type: cell-based; settings: peptide at 16, 160 and 800 nM, BMP-2 0-1000 ng/ml, 3 days, FIG. 7
Protocol: In this experiment, we determined if the affinity peptides would interfere with the cell surface receptor binding to BMP-2 using mouse osteoblasts. The alkaline phosphatase (ALP) production was monitored the presence of BMP-2 with and without affinity peptides.
Passage two MCHT-1/26 cells (mouse osteoblast cell line) were plated out in a 96 well plate the night before at 4500 cells/well. Cells were stimulated with serial dilution of BMP-2 in a range 0-1000 ng/ml in the presence or absence of 3 dilutions of peptide SEQ ID NO: 6 at 16, 160 and 800 nM. After incubation at 37° C. for 3 days, cells were lysed with lysis buffer (250 mM NaCl, 25 mM MgCl2 and 100 mM Tris, pH=8.0) overnight at 37° C. One third of the lysate was used for alkaline phosphatase assay with p-nitrophenylphosphate. The reaction was carried out at 37° C. for one to two hours. Next, the plate was read on an absorbance plate reader at a wavelength of 405 nm.

biotinylated BMP-2 = target: T1, biotinylated BMP-2 (Homo sapiens, UniProt P12643); experiment: Amplified luminescent proximity homogenous assay (ALPHA); type: binding; settings: chemically synthesized peptides, FIG. 6, normalized to molar concentration
T1 construct: purchased R&D Systems 355-BM/CF
T1 sequence (P12643 283-396): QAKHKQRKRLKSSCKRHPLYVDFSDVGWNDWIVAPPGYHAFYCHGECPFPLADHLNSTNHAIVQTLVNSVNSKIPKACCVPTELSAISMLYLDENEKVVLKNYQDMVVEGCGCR
Protocol: Concentration dependent binding efficiency of BMP-2 to the affinity peptides was evaluated using an ALPHA assay.
Diluted stock of biotinylated BMP-2 (R&D Systems, Minneapolis, Minn., Item number 355-BM/CF) at 3.3 micrograms/ml was prepared in 2× assay buffer (PBS, 0.01% Tween-80, 0.05% BSA). Chemically synthesized peptides having SEQ ID NO: 1, SEQ ID NO: 2, SEQ ID NO: 3, and SEQ ID NO: 6 were prepared using standard, automated Fluorenylmethyloxycarbonyl (Fmoc) solid phase peptide synthesis procedures. Each peptide solution for the assay was prepared from a 100 microgram/mL stock solution. The stock solution was serially diluted in ½ log steps in assay buffer resulting in peptide concentrations of 100, 33.3, 11.1, 3.70, 1.23, 0.41, 0.14, 0.046, 0.015, 0.0051, 0.0017 and 0.00056 micrograms/mL. Subsequently, serially diluted peptides were added to the corresponding wells containing the 10 microliters of the 3.3 microgram/mL solution of biotinylated BMP-2. Final assay test concentration for biotinylated BMP-2 was 0.825 micrograms/mL. Final peptide concentrations were 25, 8.3, 2.8, 0.93, 0.31, 0.10, 0.03, 0.01, 0.003, 0.001, 0.0003 and 0.0001 micrograms/mL. Next, Nickel (Ni)-acceptor and streptavidin (SA)-donor beads (Perkin Elmer, Waltham, Mass., Item number 6760619M) were diluted 1:100 in assay buffer prior to adding 20 microliters to each test well. Controls included BMP-2 alone in three different concentrations as well as SA beads with no peptide. The plate was made light-safe with an aluminum seal and shaken for 45 minutes on a table-top shaker at room temperature. The emission of the plate was read using a dual wavelength fluorometer (Perkin Elmer (Waltham, Mass.) Envision 2101 Multilabel Reader).
The ALPHA data in FIG. 6 was normalized to molar concentration based on the molecular weights of the peptide sequences.

hIgG = experiment: Cross-reactivity phage ELISA assay toward hIgG; type: binding, human; settings: relative luminescence, N=2
Protocol: (§1) In this experiment, we are confirming the binding of the phage identified in Example 1 to BMP-2.
(§2) 96-well black ELISA plates were coated with streptavidin (Rows A through D), hIgG (Rows E and F) and human serum albumin (Rows G and H), at a concentration of 5 micrograms/mL in PBS. Plates were incubated overnight at 4° C. Plates were washed 3 times with TBST using a plate washer. To the streptavidin-coated wells in rows C and D, 100 microliters of a 4 micrograms/mL solution of biotinylated-BMP-2 (R&D Systems, Minneapolis, Minn., Item number 355-BM/CF), was introduced and allowed to sit at room temperature for 30 minutes. To all other wells, 100 microliters of PBS was introduced. The plates were again washed 3 times with TBST using the plate washer. The wells were then blocked with 250 microliters of a 3% dehydrated milk suspension in TBST and allowed to sit at room temperature for a minimum of 1 hour. Using phage concentrations determined by the phage titrations, dilutions of the phage stock solutions were performed in a separate 96-well plate to result in phage concentrations of 10^10, 10^9, 10^8, 10^7, 10^6 and 10^5 phage/well. […] The luminescence was read using a luminometer set with a gain of 150.
(§3) The phage ELISA data in FIG. 3, FIG. 4 and FIG. 5 show relative luminescence and have an N value of 2. […]

[2] = target: human serum albumin (HSA) (Homo sapiens, UniProt P02768); experiment: Cross-reactivity phage ELISA assay toward human serum albumin; type: binding; settings: relative luminescence, N=2
Protocol: as §1, §2, §3

BMP-2 = target: T2, BMP-2 (Homo sapiens, UniProt P12643); experiment: Mutant phage ELISA (serine scan); type: binding; settings: FIG. 11A, FIG. 11B
T2 construct: purchased R&D Systems 355-BM/CF
T2 sequence (P12643 283-396): T1 sequence (P12643 283-396)
From the text: Mutants of SEQ ID NO: 3 and SEQ ID NO: 6 were constructed by performing a serine scan where residues of the wild type were substituted with serine. […] SEQ ID NO: 24 through SEQ ID NO: 28 are mutants of SEQ ID NO: 3. SEQ ID NO: 29 through SEQ ID NO: 32 are mutants of SEQ ID NO: 6.
The respective custom oligonucleotide was obtained from Integrated DNA Technologies. The oligonucletides were inserted into the pIX gene using standard protocols. First, the oligonucletides were phosphorylated using T4 polynucleotide kinase. Next, the phosphorylated oligonucletides were annealed to the ssDNA template. Using the Kunkel method, the annealed DNA was ligated using T4 DNA ligase and T7 DNA polymerase. The resultant DNA was isolated using isopropanol precipitation and a gel was run to confirm the reaction. Lastly, electro-competent E. coli cells were transformed with the purified DNA and were plated out onto 2xYT/Tet/Xgal agar plates and allowed to grow overnight to isolate single colonies. An aliquot of the transformed cells was allowed to grow overnight at 37° C. while shaking in 50 mL 2xYT/tet media. The phage were then PEG precipitated following the procedure in Example 1. A phage titration was performed to determine the concentration of phage for the ELISA assay as described in Example 2. ELISA assays were performed following the procedure in Example 3.

AGRDSFNLLTSSPLPST [SEQ ID NO: 6]
effect on the ALP production of mouse osteoblasts [1]: minimal effect
ranking according to concentration-dependent binding to BMP-2 (biotinylated BMP-2): SEQ ID NO: 6>SEQ ID NO: 3>SEQ ID NO: 2>SEQ ID NO: 1

AGYTSFALLKSAESTLP [SEQ ID NO: 3]
ranking according to concentration-dependent binding to BMP-2 (biotinylated BMP-2): SEQ ID NO: 6>SEQ ID NO: 3>SEQ ID NO: 2>SEQ ID NO: 1

SEQ ID NO: 1: affinity peptide toward BMP-2 identified by pIX phage display, sequence in FIG. 1 (AGLPLQSMSRLSYDSLS)
ranking according to concentration-dependent binding to BMP-2 (biotinylated BMP-2): SEQ ID NO: 6>SEQ ID NO: 3>SEQ ID NO: 2>SEQ ID NO: 1

SEQ ID NO: 2: affinity peptide toward BMP-2 identified by pIX phage display, sequence in FIG. 1 (AGPPGPYIAASAFLALK)
ranking according to concentration-dependent binding to BMP-2 (biotinylated BMP-2): SEQ ID NO: 6>SEQ ID NO: 3>SEQ ID NO: 2>SEQ ID NO: 1

SEQ ID NO: 4: affinity peptide toward BMP-2 identified by pIX phage display, sequence in FIG. 1 (AGFRWWHTQPAHTLSYT)
cross-reactivity with hIgG (hIgG): binds to both hIgG and HSA
cross-reactivity with HSA [2]: binds to both hIgG and HSA

SEQ ID NO: 33: a fragment of SEQ ID NO: 3, shown in FIG. 12 (AGYTSFALLKS)
binding to BMP-2 in mutant phage ELISA (BMP-2): important for binding to BMP-2

SEQ ID NO: 34: a fragment of SEQ ID NO: 6, shown in FIG. 12 (AGRDSFNLLTS)
binding to BMP-2 in mutant phage ELISA (BMP-2): important for binding to BMP-2
